B1: GST-eIF5^W391F (natural protein)
chain: MSINICRDNHDPFYRYKMPPIQAKVEGRGNGIKTAVLNVADISHALNRPAPYIVKYFGFELGAQTSISVDKDRYLVNGVHEPAKLQDVLDGFINKFVLCGSCKNPETEIIITKDNDLVRDCKACGKRTPMDLRHKLSSFILKNPPDSVSGSKKKKKAATASANVRGGGLSISDIAQGKSQNAPSDGTGSSTPQHHDEDEDELSRQIKAAASTLEDIEVKDDEWAVDMSEEAIRARAKELEVNSELTQLDEYGEWILEQAGEDKENLPSDVELYKKAAELDVLNDPKIGCVLAQCLFDEDIVNEIAEHNAFFTKILVTPEYEKNFMGGIERFLGLEHKDLIPLLPKILVQLYNNDIISEEEIMRFGTKSSKKFVPKEVSKKVRRAAKPFITFLETAESDDDEEDDE
B2: GST-eIF5^LR+CTD (domain or fragment)
chain: KKKKAATASANVRGGGLSISDIAQGKSQNAPSDGTGSSTPQHHDEDEDELSRQIKAAASTLEDIEVKDDEWAVDMSEEAIRARAKELEVNSELTQLDEYGEWILEQAGEDKENLPSDVELYKKAAELDVLNDPKIGCVLAQCLFDEDIVNEIAEHNAFFTKILVTPEYEKNFMGGIERFLGLEHKDLIPLLPKILVQLYNNDIISEEEIMRFGTKSSKKFVPKEVSKKVRRAAKPFITWLETAESDDDEEDDE
B3: GST-eIF5^CTD (domain or fragment)
chain: VNSELTQLDEYGEWILEQAGEDKENLPSDVELYKKAAELDVLNDPKIGCVLAQCLFDEDIVNEIAEHNAFFTKILVTPEYEKNFMGGIERFLGLEHKDLIPLLPKILVQLYNNDIISEEEIMRFGTKSSKKFVPKEVSKKVRRAAKPFITWLETAESDDDEEDDE

Target: Yeast eIF2αβγ complex, purified (his-tagged eIF2γ) (yeast, UniProt P20459;P09064;P32481)
Assay: pull-down

Yeast eIF2αβγ complex, purified (his-tagged eIF2γ), sequence (P20459 whole entry, chain 1 of 3): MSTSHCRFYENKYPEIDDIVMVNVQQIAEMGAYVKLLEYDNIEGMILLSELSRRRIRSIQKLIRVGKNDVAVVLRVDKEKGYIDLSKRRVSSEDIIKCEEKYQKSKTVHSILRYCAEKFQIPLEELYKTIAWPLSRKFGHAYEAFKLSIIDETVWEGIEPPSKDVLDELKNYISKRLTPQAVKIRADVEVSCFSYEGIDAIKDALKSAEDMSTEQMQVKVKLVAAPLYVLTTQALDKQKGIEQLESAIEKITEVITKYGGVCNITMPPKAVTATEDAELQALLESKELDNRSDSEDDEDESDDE
Yeast eIF2αβγ complex, purified (his-tagged eIF2γ), sequence (P09064 whole entry, chain 2 of 3): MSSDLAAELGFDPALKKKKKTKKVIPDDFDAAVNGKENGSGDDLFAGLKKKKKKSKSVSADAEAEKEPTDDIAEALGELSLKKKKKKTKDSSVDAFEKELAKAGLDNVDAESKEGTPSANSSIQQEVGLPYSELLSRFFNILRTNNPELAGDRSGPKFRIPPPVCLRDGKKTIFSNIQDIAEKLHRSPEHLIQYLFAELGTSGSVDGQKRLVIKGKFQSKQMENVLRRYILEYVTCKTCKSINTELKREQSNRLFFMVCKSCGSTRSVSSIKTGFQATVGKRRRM
Yeast eIF2αβγ complex, purified (his-tagged eIF2γ), sequence (P32481 whole entry, chain 3 of 3): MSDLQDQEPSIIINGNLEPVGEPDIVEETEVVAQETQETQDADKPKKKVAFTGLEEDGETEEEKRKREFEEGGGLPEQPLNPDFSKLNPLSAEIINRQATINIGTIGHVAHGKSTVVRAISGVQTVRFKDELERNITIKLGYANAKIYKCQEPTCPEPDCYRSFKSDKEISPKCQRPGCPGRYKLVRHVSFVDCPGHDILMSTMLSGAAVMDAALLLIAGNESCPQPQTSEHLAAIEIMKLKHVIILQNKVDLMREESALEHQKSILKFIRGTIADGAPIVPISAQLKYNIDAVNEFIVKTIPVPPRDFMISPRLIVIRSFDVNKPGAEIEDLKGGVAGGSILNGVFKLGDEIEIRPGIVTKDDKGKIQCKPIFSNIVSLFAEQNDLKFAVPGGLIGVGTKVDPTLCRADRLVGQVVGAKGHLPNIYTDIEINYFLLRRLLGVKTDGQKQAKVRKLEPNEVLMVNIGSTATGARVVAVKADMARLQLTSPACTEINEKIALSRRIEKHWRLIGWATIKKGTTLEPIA

binding result | Binder
binds | B1
binds | B2
binds | B3

Reference: article PMC2875157 (Nature, 2010)
